Source: publication PMC3317874, “Palmitoylation and membrane cholesterol stabilize μ-opioid receptor homodimerization and G protein coupling” (BMC Cell Biology, 2012)
Residue numbers refer to the chain shown, from its start. In names and notes the source's numbering stands.

Assays:
Experiment in all cases: FRET or BRET; CFP and YFP constructs transiently transfected into HEK cells; normalized net FRET analysed on the cell membrane; also after 12 h of 0.5 μM simvastatin, simvastatin with 20 ng/ml cholesterol, or 50 μM 2-BP
[1] = target: T1, YFP-fused wild-type μ-opioid receptor (OPRM1) (rat), P33535; details: remark: other sources report otherwise
T1 chain: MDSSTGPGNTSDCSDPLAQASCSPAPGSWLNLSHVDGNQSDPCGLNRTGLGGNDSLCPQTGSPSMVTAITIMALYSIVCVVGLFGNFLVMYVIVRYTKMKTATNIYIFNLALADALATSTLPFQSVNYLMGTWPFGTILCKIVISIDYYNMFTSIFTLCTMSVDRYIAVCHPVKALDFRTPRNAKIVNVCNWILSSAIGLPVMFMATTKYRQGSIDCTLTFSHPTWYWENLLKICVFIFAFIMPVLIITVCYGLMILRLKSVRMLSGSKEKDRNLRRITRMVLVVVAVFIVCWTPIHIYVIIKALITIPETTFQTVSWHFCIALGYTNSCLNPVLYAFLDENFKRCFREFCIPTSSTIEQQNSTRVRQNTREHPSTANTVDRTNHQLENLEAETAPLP

[2] = target: T2, YFP-fused C170A mutant of μ-opioid receptor (OPRM1) (rat, UniProt P33535 1-398, C170A); details: partners not purified
T2 construct: μ-opioid receptor (OPRM1) with C3.55(170) mutated to alanine; also called YFPC170A; source: HEK cells, transiently transfected, in cells; not shown: YFP, C-terminal, kept

[3] = target: T3, YFP-fused wild-type μ-opioid receptor (OPRM1) (rat, UniProt P33535 1-398, palmitoylated at C3.55(170)); details: partners not purified
T3 construct: μ-opioid receptor (OPRM1), wild type; also called YFPOPRM1; source: HEK cells, transiently transfected, in cells; not shown: YFP, C-terminal, kept

B1: CFP-fused wild-type μ-opioid receptor (OPRM1), P33535 1-398 (receptor)
chain: T1 chain
modifications: here or on the partner: palmitoylated at C3.55(170); palmitoylated at C3.55(170)
normalized net FRET [1]: 0.49

B2: CFP-fused wild-type μ-opioid receptor (OPRM1) (receptor, rat, UniProt P33535 1-398, looked up)
chain: T1 chain
modifications: palmitoylated at C3.55(170)
notes: μ-opioid receptor (OPRM1), wild type; also called CFPOPRM1; source: HEK cells (also HEKOPRM1 and HEKC170A cells), transiently transfected, in living or fixed cells; not shown: CFP, C-terminal, kept
normalized net FRET [2]: 0.3

B3: CFP-fused C170A mutant of μ-opioid receptor (OPRM1) (receptor, rat, UniProt P33535 1-398, looked up)
chain: T1 chain with C170A
notes: μ-opioid receptor (OPRM1) with C3.55(170) mutated to alanine; also called CFPC170A; source: HEK cells (also HEKOPRM1 and HEKC170A cells), transiently transfected, in cells; not shown: CFP, C-terminal, kept
normalized net FRET [3]: 0.27
normalized net FRET [2]: 0.07
